Experimental data taken from patent publication US20110117021A1 (BIOTIE THERAPIES, published 2011).

T1: recombinant human Vascular Adhesion Protein-1 (rhVAP-1), purified from CHO cells (human, UniProt Q16853 1-763, limits assumed)
T1 construct: also called recombinant human VAP-1
T1 sequence (looked up): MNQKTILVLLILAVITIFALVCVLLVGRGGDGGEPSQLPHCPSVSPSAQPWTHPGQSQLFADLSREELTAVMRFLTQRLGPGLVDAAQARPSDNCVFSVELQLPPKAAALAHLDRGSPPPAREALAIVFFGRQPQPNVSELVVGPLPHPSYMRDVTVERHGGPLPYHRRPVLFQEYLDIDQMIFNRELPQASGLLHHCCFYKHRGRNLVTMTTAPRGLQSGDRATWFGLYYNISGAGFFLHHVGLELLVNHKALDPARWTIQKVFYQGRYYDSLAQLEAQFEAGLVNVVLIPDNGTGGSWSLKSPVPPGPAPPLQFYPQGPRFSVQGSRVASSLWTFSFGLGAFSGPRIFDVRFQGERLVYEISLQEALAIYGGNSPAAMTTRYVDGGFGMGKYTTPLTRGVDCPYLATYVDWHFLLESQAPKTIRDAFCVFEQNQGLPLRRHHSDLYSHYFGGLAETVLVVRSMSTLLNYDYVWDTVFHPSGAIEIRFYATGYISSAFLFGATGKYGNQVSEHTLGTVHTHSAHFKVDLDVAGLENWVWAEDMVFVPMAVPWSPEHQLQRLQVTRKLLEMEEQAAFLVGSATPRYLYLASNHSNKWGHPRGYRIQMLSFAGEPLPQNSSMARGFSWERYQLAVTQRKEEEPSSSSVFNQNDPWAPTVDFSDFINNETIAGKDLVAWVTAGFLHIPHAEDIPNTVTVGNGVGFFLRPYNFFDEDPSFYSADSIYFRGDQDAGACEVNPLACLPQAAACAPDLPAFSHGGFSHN


Key:
[1] = target: T1, recombinant human Vascular Adhesion …; assay: time-resolved immunofluorometric assay, plate coated with rhVAP-1, europium-conjugated anti-human antibody detection
Experimental: A time-resolved immunofluorometric assay was used quantitatively to examine the binding of 5F12, 4B3, 3F10, 8A4 and 8C10 to rhVAP-1. A microtiter plate was coated with rhVAP-1 and then blocked with bovine serum albumin solution. An amount of antibody between 2 and 4320 ng/ml was subsequently added to bind to rhVAP-1 and the bound antibody detected by a europium-conjugated mouse anti-human antibody (Perkin Elmer Inc.). The label was detected by measuring the time-resolved fluorescence (VICTOR³™ multilabel counter, PerkinElmer Inc.) at 615 nm. The fluorescence counts directly correlate with how much antibody was bound to its target. The sample data were then analyzed in comparison to the standard curve of a reference.

[2] = target: T1, recombinant human Vascular Adhesion …; assay: Biacore SPR, BTT-1023 captured on biotinylated protein G' on a streptavidin chip, rhVAP-1 as analyte
Experimental: Constant amounts of rhVAP-1 were used as an analyte for saturating concentration of mAbs (ligands). Experiments were performed using BIALITE® equipment (BIACORE® AB) and the data analyzed using Biacore software.

[3] = target: T1, recombinant human Vascular Adhesion …; assay: time-resolved immunofluorometric assay, plate coated with rhVAP-1, europium-conjugated anti-human antibody detection; remark: listed apart in the source
Experimental: A microtiter plate was coated with rhVAP-1 and then blocked with bovine serum albumin solution. […] The label was detected by measuring the time-resolved fluorescence (VICTOR³™ multilabel counter, PerkinElmer Inc.) at 615 nm. […] The sample data were then analyzed in comparison to the standard curve of a reference.

Row | Binder | Kd [1] [pM] | Kd [2] [pM] | Kd [3] [pM]
1 | fully human anti-VAP-1 monoclonal antibody 5F12 (hybridoma-derived) (antibody, V domains shown) VH: QVQLVDSGGDVVQPGRSLRLSCAASGFSFSRSGIHWVRQAPGKGLEWVAVIWYDGIYKYYADSVKGRFTISRDNSKNTLYLQMNSLRAEDTAVYYCAREKNWGIDYWGQGTLVTVSS VL: DIQMTQSPSSLSASVGDRVTITCRASQGISSWLAWYQQKPEKAPKSLIYGASSLQSGVPSRFSGSGSGTDFTLTISSLQPEDFATYYCQQYNSYPRTFGQGTKVEIK | 650 |  | 
2 | fully human anti-VAP-1 monoclonal antibody 8A4 (hybridoma-derived) (antibody, human IgG1, V domains shown) VH: EVQLVESGGGLVQPGGSLRLSCAASGFIFSNYWMSWVRQAPGKGLEWVANIKQDGSEKYYVDSVRGRFTVSRDNAKNSLYLQMNSLRAEDTAVYYCARDYFGSGTYFFYFDYWGQGTLVTFSS VL: EIVLTQSPATLSLSPGERATLSCRASQSVSSYLAWYQQKPGQAPRLLIYDASNRATGIPARFSGSGSGTDFTLTISSLEPEDFAVYYCQQRSNWPLTFGGGTKVEIK | 280 |  | 
3 | fully human anti-VAP-1 monoclonal antibody 8C10 (hybridoma-derived) (antibody, human IgG1, V domains shown) VH: QVQLVESGGGVVQPGRSLRLSCAASGFTFFSYAMHWVRQTPGKGLEWVAVIWFDGSNENYVDSVKGRFTISRDNSKNTLYLQMNTLRAEDTAVYYCARDAWSYFDYWGQGTLVTVSS VL: VIQLTQSPSSLSASVGDRVTITCRASQGISRALAWYQQKPGKGPKLLIYDASSLESGVPSRFSGSGSGTDFTLTISSLQPEDFATYYCQQFNSYPLTFGGGTKVEIK | 210 |  | 
4 | recombinant fully human anti-VAP-1 antibody r8C10 (BTT-1023) (antibody, human IgG4 S228P, kappa, V domains shown, also called recombinant 8C10) VH: QVQLVESGGGVVQPGRSLRLSCAASGFTFFSYAMHWVRQTPGKGLEWVAVIWFDGSNENYVDSVKGRFTISRDNSKNTLYLQMNTLRAEDTAVYYCARDAWSYFDYWGQGTLVTVSS VL: VIQLTQSPSSLSASVGDRVTITCRASQGISRALAWYQQKPGKGPKLLIYDASSLESGVPSRFSGSGSGTDFTLTISSLQPEDFATYYCQQFNSYPLTFGGGTKVEIKR |  | 130 | 380
5 | fully human anti-VAP-1 monoclonal antibody 3F10 (hybridoma-derived) (antibody, human IgG1, V domains shown) VH: QVQLVESGGGVVQPGRSLRLSCAASGFTFSSYAMHWVRQAPGKGLEWVAVLWFDGSNEDYADSVKGRFTISRDNSKNTLYLQMNSLRAEDTAVYYCARDGWGYFDYWGQGTLVTVSS VL: AIQLTQSPSSLSASVGDRVTITCRASQGISRALAWYQQKPGKAPKLLIYDASNLERGVPSRFSGSGSGTDFTLTISSLQPEDFATYYCQQFNSFPLTFGGGTKVEIK | 250 |  | 
6 | fully human anti-VAP-1 monoclonal antibody 4B3 (hybridoma-derived) (antibody, human IgG1, V domains shown) VH: EVQLVQSGGGLVHPGGSLRLSCAGSGFPVSSYGMHWVRQAPGKGLEWVSAIGVGGGTYHVDSVKGRFTISRDNAKNSLYLQMNSLRAGDMAVYYCARDPGFGEVYFDYWGQGTLVTVSS VL: not shown | 310 |  | 
